Results: the supplement of paper PMC10724198
± gives the standard deviation of the averaged measurements.

How the values were obtained:
Saccharomyces cerevisiae [1] = assay: protein stability index of tFT-peptide fusion (C-terminal peptide) (PSI (0-1 scale)); higher = more stable (slower turnover); details: genetic background: wild type; temperature: 30 C
Saccharomyces cerevisiae [2] = assay: as above
Protocol: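 MPS profiling in S. cerevisiae of the tFT-X12 degron library: putative degron peptides plus stable controls, 12 aa, fused to the C-terminus of a sfGFP-mCherry timer. Cells are FACS-sorted into 8 mCherry/sfGFP bins and deep-sequenced. PSI runs from 0 (unstable) to 1 (stable). Backgrounds are wild type, das1Δ and doa10Δ at 30 °C, and wild type, das1Δ, cdc34-1 and cdc53-1 at 37 °C; 2-3 technical replicates each.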

[3] = genetic background: cdc34-1, temperature: 37 C
[4] = genetic background: cdc53-1, temperature: 37 C
[5] = genetic background: das1 deletion, temperature: 30 C
[6] = genetic background: das1 deletion, temperature: 37 C
[7] = genetic background: doa10 deletion, temperature: 30 C
[8] = genetic background: wild type, temperature: 30 C
[9] = genetic background: wild type, temperature: 37 C
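Note: PSI is a weighted mean of sequencing reads over stability bins, variants kept only with over 10 reads, mCherry proximal and sfGFP distal, peptide attached via GGGS linker.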

Sequence	protein stability index (Saccharomyces cerevisiae [1])	protein stability index (Saccharomyces cerevisiae [2]; [3])	protein stability index (Saccharomyces cerevisiae [2]; [4])	protein stability index (Saccharomyces cerevisiae [2]; [5])	protein stability index (Saccharomyces cerevisiae [2]; [6])	protein stability index (Saccharomyces cerevisiae [2]; [7])	protein stability index (Saccharomyces cerevisiae [2]; [8])	protein stability index (Saccharomyces cerevisiae [2]; [9])
LLLSLLVLRFFL	0.423 ± 0.027	0.37 ± 0.043	0.309 ± 0.007	0.356 ± 0.047	0.536 ± 0.033	0.5037 ± 0.0014	0.357 ± 0.028	0.501 ± 0.019
LLMPLLLHSLVW	0.409 ± 0.005	0.354 ± 0.021	0.396 ± 0.012	0.308 ± 0.019	0.455 ± 0.0014	0.308 ± 0.0067	0.335 ± 0.0096	0.434 ± 0.024
LLPSNFLLLVGV	0.289 ± 0.032	0.219 ± 0.051	0.204 ± 0.011	0.217 ± 0.03	0.325 ± 0.014	0.208 ± 0.012	0.231 ± 0.023	0.2857 ± 0.0024
LMIVSVRLLFFL	0.2661 ± 0.002	0.229 ± 0.049	0.39 ± 0.0024	0.232 ± 0.029	0.419 ± 0.015	0.1617 ± 0.00049	0.172 ± 0.019	0.282 ± 0.014
LPAICFWCVLVG	0.201 ± 0.0059	0.0778 ± 0.014	0.136 ± 0.00061	0.164 ± 0.025	0.273 ± 0.035	0.133 ± 0.024	0.162 ± 0.04	0.21 ± 0.013
LPNLPPTSPERH	0.663 ± 0.33	0.638 ± 0.0034	0.734 ± 0.015	0.652 ± 0.021	0.7046 ± 0.0062	0.6558 ± 0.0059	0.659 ± 0.015	0.703 ± 0.0097
LPPSPPCQSPAL	0.743 ± 0.018	0.667 ± 0.021	0.716 ± 0.012	0.672 ± 0.015	0.728 ± 0.012	0.681 ± 0.03	0.667 ± 0.019	0.685 ± 0.013
LPPYPPPVPILI	0.493 ± 0.017	0.449 ± 0.0069	0.455 ± 0.021	0.362 ± 0.031	0.519 ± 0.0006	0.322 ± 0.0038	0.39 ± 0.026	0.489 ± 0.0053
LPSLRPPPCIRA	0.48 ± 0.018	0.4441 ± 0.002	0.473 ± 0.013	0.36 ± 0.038	0.54 ± 0.02	0.332 ± 0.041	0.345 ± 0.015	0.513 ± 0.014
LQYSKALAVICG	0.374 ± 0.05	0.218 ± 0.034	0.264 ± 0.027	0.235 ± 0.041	0.367 ± 0.01	0.19 ± 0.017	0.221 ± 0.033	0.317 ± 0.023
LRALGPRIYRIS	0.317 ± 0.035	0.661 ± 0.076	0.747 ± 0.025	0.645 ± 0.015	0.747 ± 0.016	0.194 ± 0.0089	0.199 ± 0.012	0.417 ± 0.016
LRLFIFLLFSVF	0.198 ± 0.013	0.246 ± 0.025	0.282 ± 0.023	0.268 ± 0.034	0.39 ± 0.012	0.19 ± 0.0081	0.175 ± 0.015	0.249 ± 0.013
LSFFFWFIFSLC	0.376 ± 0.019	0.475 ± 0.013	0.492 ± 0.053	0.429 ± 0.028	0.5328 ± 0.0043	0.344 ± 0.035	0.325 ± 0.0039	0.443 ± 0.027
LSLFCFFLLVLF	0.2279 ± 0.0013	0.203 ± 0.025	0.224 ± 0.021	0.272 ± 0.047	0.332 ± 0.011	0.305 ± 0.0094	0.206 ± 0.03	0.288 ± 0.0084
LSPLPSPLILVV	0.284 ± 0.014	0.116 ± 0.08	0.16 ± 0.021	0.201 ± 0.0086	0.228 ± 0.0065	0.14761 ± 5.3e-05	0.191 ± 0.034	0.182 ± 0.022
LSRELRFVGFYH	0.318 ± 0.066	0.637 ± 0.07	0.751 ± 0.019	0.656 ± 0.017	0.717 ± 0.025	0.222 ± 0.004	0.229 ± 0.054	0.517 ± 0.043
LSRLWVVGWVVA	0.295 ± 0.036	0.453 ± 0.019	0.472 ± 0.028	0.345 ± 0.032	0.529 ± 0.0071	0.191 ± 0.0034	0.234 ± 0.025	0.399 ± 0.013
LSSIIRFLIFCL	0.404 ± 0.013	0.496 ± 0.024	0.532 ± 0.015	0.495 ± 0.024	0.5964 ± 0.0026	0.398 ± 0.031	0.366 ± 0.0049	0.469 ± 0.0062
LTIYPLTYCFVS	0.502 ± 0.035	0.629 ± 0.051	0.704 ± 0.046	0.562 ± 0.025	0.657 ± 0.058	0.45336 ± 0.00045	0.44 ± 0.023	0.568 ± 0.025
